In patent US20030162714A1 (Pfizer, published 2003):

Target: T1, recombinant purified GDF-8 (UniProt O14793 267-375, limits assumed)
T1 sequence (looked up): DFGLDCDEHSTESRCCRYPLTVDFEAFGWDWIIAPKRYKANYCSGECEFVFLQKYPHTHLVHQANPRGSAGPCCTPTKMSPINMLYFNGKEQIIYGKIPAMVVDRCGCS
Assay: cell-based or functional assay

B1: mouse GASP1 cloned with a C-terminal V5-His tag (GASP1-V5-His) (other, not shown: small tags and cut ends)
chain: LPPIRYSHAGICPNDMNPNLWVDAQSTCKRECETDQECETYEKCCPNVCGTKSCVAARYMDVKGKKGPVGMPKEATCDHFMCLQQGSECDIWDGQPVCKCKDRCEKEPSFTCASDGLTYYNRCFMDAEACSKGITLSVVTCRYHFTWPNTSPPPPETTVHPTTASPETLGLDMAAPALLNHPVHQSVTVGETVSFLCDVVGRPRPELTWEKQLEDRENVVMRPNHVRGNVVVTNIAQLVIYNVQPQDAGIYTCTARNVAGVLRADFPLSVVRGGQARATSESSLNGTAFPATECLKPPDSEDCGEEQTRWHFDAQANNCLTFTFGHCHHNLNHFETYEACMLACMSGPLATCSLPALQGPCKAYVPRWAYNSQTGLCQSFVYGGCEGNGNNFESREACEESCPFPRGNQHCRACKPRQKLVTSFCRSDFVILGRVSELTEEQDSGRALVTVDEVLKDEKMGLKFLGREPLEVTLLHVDWTCPCPNVTVGETPLIIMGEVDGGMAMLRPDSFVGASSTRRVRKLREVMYKKTCDVLKDFLGLQ
  IC50 for inhibition of GDF-8 in the reporter gene assay ((CAGA)12 luciferase, RD cells, 20 ng/ml GDF-8): ~3 nM
